Source: patent US20210221875A1 (Chugai, published 2021)
Each block holds one binder with its values, some of them ahead of it.

Key:
[1] = target: T1, Human aggrecan G1-IGD-G2 domain with Flag-tag on its C-terminus (human, UniProt P16112 17-675); experiment: SPR (Biacore T200), 37 C, pH 7.4, antibody captured by protein A/G, 1:1 model; footnote: fitting was not good due to bi-phasic interaction
T1 construct: used unlabelled as Biacore analyte; also called human aggrecan G1-IGD-G2-Flag; human Aggrecan G1G2 flag
Description: (§1) The binding affinity of the antibodies at pH 7.4 was determined at 37 degrees C. using Biacore T200 instrument (GE Healthcare). Recombinant Protein A/G (Pierce) was immobilized onto all flow cells of a CM4 sensor chip using amine coupling kit (GE Healthcare). Antibodies and analytes were prepared in buffer (20 mM Sodium Phosphate, 150 mM NaCl, 0.05% Tween 20, 0.005% NaN₃, pH 7.4). Each antibody was captured onto the sensor surface by protein A/G. Antibody capture levels were aimed at 200 resonance unit (RU). […] Sensor surface was regenerated each cycle with 10 mM Glycine-HCl pH 1.5.

[2] = target: T2, biotin-rabbit aggrecan G1-IGD-G2-3xFlag (rabbit, UniProt Q28670 17-683, biotin on the N-terminal Avi-tag (BirA co-expression)); experiment: as above
T2 construct: three tandem Flag-tags at the C-terminus and Avi-tag at the N-terminus; also called biotinylated Avi-rabbit aggrecan G1-IGD-G2-3xFLAG; Avi RbG1G2 3FLAG
Description: as §1

[3] = target: T2, biotin-rabbit aggrecan G1-IGD-G2-3xFlag; experiment: SPR (Biacore T200), 37 C, pH 7.4, antibody captured, Avi RbG1G2 3Flag as analyte, 1:1 model;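 also: antibodies captured at roughly 200 RU on a CM4 or C1 chip through anti-human IgG Fc or Protein A/G, in sodium phosphate NaCl buffer with Tween 20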
Description: (§2) Anti-Human IgG (Fc) antibody was immobilized onto all flow cells of a CM4 sensor chip using Human antibody capture kit (GE Healthcare). Protein A/G was immobilized onto all flow cells of a CM4 or C1 sensor chip using amine coupling kit (GE Healthcare). Antibodies and analytes were prepared in buffer (50 mM Sodium Phosphate, 150 mM NaCl, 0.02% Tween 20, 0.005% NaN3, pH 7.4 or 20 mM Sodium Phosphate, 150 mM NaCl, 0.05% Tween20, 0.005% NaN₃, pH 7.4). Each antibody was captured onto the sensor surface by Anti-Human IgG (Fc) antibody or Protein A/G. Antibody capture levels were aimed at 200 resonance unit (RU). […] Sensor surface was regenerated each cycle with 3 M MgCl₂ or 10 mM Glycine-HCl, pH 1.5.

[4] = target: T2, biotin-rabbit aggrecan G1-IGD-G2-3xFlag; experiment: SPR (Biacore T200), 37 C, pH 7.4, antibody captured, Avi RbG1G2 3Flag as analyte, 1:1 model; second row with this name
Description: as §2

soluble human IL-6R [5] = target: T3, soluble human IL-6R (human, UniProt P08887 20-357); experiment: BLI (Octet HTX), molecule on Protein A sensor, hsIL-6R as analyte, 30 C
T3 construct: also called hsIL-6R; recombinant human IL6R
T3 sequence: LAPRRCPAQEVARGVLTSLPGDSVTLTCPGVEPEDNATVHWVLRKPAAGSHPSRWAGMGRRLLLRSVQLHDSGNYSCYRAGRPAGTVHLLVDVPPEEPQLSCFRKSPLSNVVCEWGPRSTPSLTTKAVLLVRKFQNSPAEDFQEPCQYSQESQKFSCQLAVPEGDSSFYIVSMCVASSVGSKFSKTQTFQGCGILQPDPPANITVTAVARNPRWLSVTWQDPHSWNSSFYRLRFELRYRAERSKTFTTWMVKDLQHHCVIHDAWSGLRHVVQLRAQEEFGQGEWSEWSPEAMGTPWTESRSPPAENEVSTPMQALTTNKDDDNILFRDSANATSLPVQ
Description: The hsIL-6R binding evaluation of each molecule was conducted using Octet HTX (Pall ForteBio Corp.).

[6] = target: T1, Human aggrecan G1-IGD-G2 domain with …; experiment: SPR (Biacore), 37 C, as in Example 20
Description: as §1

[7] = target: T2, biotin-rabbit aggrecan G1-IGD-G2-3xFlag; experiment: SPR (Biacore), 37 C, as in Example 20
Description: as §1

[8] = target: T1, Human aggrecan G1-IGD-G2 domain with …; experiment: SPR (Biacore T200), 37 C, pH 7.4, antibody captured by protein A/G, 1:1 model
Description: as §1

[9] = target: T2, biotin-rabbit aggrecan G1-IGD-G2-3xFlag; experiment: as above
Description: as §1

soluble human IL-6R [10] = target: T3, soluble human IL-6R; experiment: BLI (Octet), in the same way as in Example 3, 30 C or 25 C

binding result (soluble human IL-6R [5]): no binding
B5: IL6R90-G1m/VL2-14-lamL (antibody, human IgG1, lambda, V domains shown)
VH: EVQLVESGGGLVQPGGSLRLSCAASGFTFDDYGMSWVRQAPGKALEWVSAISWNGNNTYYTESMKGRFTISRDNAKNTLYLQMNSLRPEDTAVYYCVKGSTAIVGVPPTYPDEYDYWGQGTLVTVSS
VL: QSALTQPASVSGSPGQSITISCTGTSSDVGGYNYVSWYQQHPGKAPKLMIYEVSNRPSGVSNRFSGSKSGNTASLTISGLQAEDEADYYCSSYRSGYTLVVFGGGTKLTVLG
notes: IgG antibody-like molecule with VHH IL6R90 in place of VH

binding result (soluble human IL-6R [5]): no binding
B6: IL6R90-G1m/VL1-44-lamL (antibody, human IgG1, lambda, V domains shown)
VH: EVQLVESGGGLVQPGGSLRLSCAASGFTFDDYGMSWVRQAPGKALEWVSAISWNGNNTYYTESMKGRFTISRDNAKNTLYLQMNSLRPEDTAVYYCVKGSTAIVGVPPTYPDEYDYWGQGTLVTVSS
VL: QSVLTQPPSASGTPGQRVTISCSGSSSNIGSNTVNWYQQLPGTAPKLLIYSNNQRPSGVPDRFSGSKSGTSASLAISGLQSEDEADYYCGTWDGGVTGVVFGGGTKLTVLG
notes: as for B5

binding result (soluble human IL-6R [10]): no binding
B9: 20A11hu-G1m/VL1-44-lamL (antibody, human IgG1, lambda, V domains shown)
VH: EVQLVESGGGLVQPGGSLRLSCAASGSVFKINVMAWVRQAPGKGLEWVAGIISGGSTSYADSVKGRFTISRDNAKNTLYLQMNSLRPEDTAVYYCAFITTESDYDLGRRYWGQGTLVTVSS
VL: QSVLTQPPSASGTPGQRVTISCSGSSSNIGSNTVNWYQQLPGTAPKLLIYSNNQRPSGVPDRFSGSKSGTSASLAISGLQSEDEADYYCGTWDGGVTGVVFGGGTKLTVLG
notes: IgG antibody-like molecule with VHH 20A11hu in place of VH

binding result (soluble human IL-6R [10]): no binding
B10: 20A11hu-G1m/VL2-14-lamL (antibody, human IgG1, lambda, V domains shown)
VH: EVQLVESGGGLVQPGGSLRLSCAASGSVFKINVMAWVRQAPGKGLEWVAGIISGGSTSYADSVKGRFTISRDNAKNTLYLQMNSLRPEDTAVYYCAFITTESDYDLGRRYWGQGTLVTVSS
VL: QSALTQPASVSGSPGQSITISCTGTSSDVGGYNYVSWYQQHPGKAPKLMIYEVSNRPSGVSNRFSGSKSGNTASLTISGLQAEDEADYYCSSYRSGYTLVVFGGGTKLTVLG
notes: as for B9

Second part, the binder before the results:

B1: GRA0105gg-rbIgG (antibody)
heavy: QSLEESGGGLVTPGTPLTLTCTVSGLSLSNSVMSWVRQAPGKGLEWIGFISIHDETNYATWAKGRFTISKTSSTTVDLKMTSPTTDDTATYFCARDGDSHGFYFGLWGPGTLVTVSSGQPKAPSVFPLAPCCGDTPSSTVTLGCLVKGYLPEPVTVTWNSGTLTNGVRTFPSVRQSSGLYSLSSVVSVTSSSQPVTCNVAHPATNTKVDKTVAPSTCSKPMCPPPELLGGPSVFIFPPKPKDTLMISRTPEVTCVVVDVSQDDPEVQFTWYINNEQVRTARPPLREQQFNSTIRVVSTLPIAHQDWLRGKEFKCKVHNKALPAPIEKTISKARGQPLEPKVYTMGPPREELSSRSVSLTCMINGFYPSDISVEWEKNGKAEDNYKTTPTVLDSDGSYFLYSKLSVPTSEWQRGDVFTCSVMHEALHNHYTQKSISRSPGK
light: QVLTQTPSPVSAAVGGTVTINCQASQSVYNKNNLAWYQQKPGQPPKLLIYDASKLASGVPSRFKGGGSGTHFTLTISGVQCDDAATYYCQGTYYSSGWYNTFGGGTKVEIKRDPVAPTVLIFPPAADQVATGTVTIVCVANKYFPDVTVTWEVDGTTQTTGIENSKTPQNSADCTYNLSSTLTLTSTQYNSHKEYTCKVTQGTTSVVQSFNRGDC
notes: anti-aggrecan antibody, rabbit constant regions rbIgG / rbIgK
Kd [1]: 3.16 nM
koff [1]: 0.000287 s⁻¹
kon [1]: 91100 M⁻¹ s⁻¹
Kd [2]: 4.42 nM
koff [2]: 0.000255 s⁻¹
kon [2]: 57700 M⁻¹ s⁻¹

B2: GRA0124Hc0626-SG1/GRA0124Lc0544-SK2 (antibody, human IgG1, kappa)
heavy: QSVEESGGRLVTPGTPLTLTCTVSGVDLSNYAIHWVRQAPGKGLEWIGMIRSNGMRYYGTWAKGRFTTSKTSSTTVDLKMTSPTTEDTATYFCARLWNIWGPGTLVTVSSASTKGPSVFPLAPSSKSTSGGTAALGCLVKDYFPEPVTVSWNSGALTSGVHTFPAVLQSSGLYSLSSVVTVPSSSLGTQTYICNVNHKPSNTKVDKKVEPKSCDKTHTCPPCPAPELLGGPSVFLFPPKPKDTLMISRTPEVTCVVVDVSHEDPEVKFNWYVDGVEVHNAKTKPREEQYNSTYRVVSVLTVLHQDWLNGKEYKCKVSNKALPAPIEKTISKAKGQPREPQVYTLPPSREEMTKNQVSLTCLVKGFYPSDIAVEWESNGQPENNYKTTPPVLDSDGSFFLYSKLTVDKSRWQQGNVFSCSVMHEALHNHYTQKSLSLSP
light: AQVLTQTPSSTSVAVGGTVTINCQSSPSVYLNLLAWYQQKPGQPPKLLIYSASFLQSGVPPRFSGSGSGTQFTLTISGVQCADAATYYCAGVYSNNIYTFGGGTKVEIKRTVAAPSVFIFPPSDEQLKSGTASVVCLLNNFYPREAKVQWKVDNALQSGNSQESVTEQDSKDCTYSLSSTLTLSKADYEKHKVYACEVTHQGLSSPVTKSFNRGEC
notes: also called GRA0124ccAE02-SG1; GRA124ccAE02-SG1
Kd [3]: 15.6 nM
koff [3]: 0.000838 s⁻¹
kon [3]: 53900 M⁻¹ s⁻¹
Kd [4]: 4.07 nM
koff [4]: 0.000341 s⁻¹
kon [4]: 83800 M⁻¹ s⁻¹

B3: IL6R90-G1m/VK2-28-k0MT (antibody, human IgG1, kappa, V domains shown)
VH: EVQLVESGGGLVQPGGSLRLSCAASGFTFDDYGMSWVRQAPGKALEWVSAISWNGNNTYYTESMKGRFTISRDNAKNTLYLQMNSLRPEDTAVYYCVKGSTAIVGVPPTYPDEYDYWGQGTLVTVSS
VL: not shown
notes: as for B5
binding result (soluble human IL-6R [5]): no binding

B4: IL6R90-G1m/VL1-40-lamL (antibody, human IgG1, lambda, V domains shown)
VH: EVQLVESGGGLVQPGGSLRLSCAASGFTFDDYGMSWVRQAPGKALEWVSAISWNGNNTYYTESMKGRFTISRDNAKNTLYLQMNSLRPEDTAVYYCVKGSTAIVGVPPTYPDEYDYWGQGTLVTVSS
VL: QSVLTQPPSVSGAPGQRVTISCTGSSSNIGAGYDVHWYQQLPGTAPKLLIYGNSNRPSGVPDRFSGSKSGTSASLAITGLQAEDEADYYCQSYDNSLNAVVFGGGTKLTVLG
notes: as for B5
binding result (soluble human IL-6R [5]): no binding

B7: GRA0124ccAE02-rbIgG (antibody)
heavy: QSVEESGGRLVTPGTPLTLTCTVSGVDLSNYAIHWVRQAPGKGLEWIGMIRSNGMRYYGTWAKGRFTTSKTSSTTVDLKMTSPTTEDTATYFCARLWNIWGPGTLVTVSSGQPKAPSVFPLAPCCGDTPSSTVTLGCLVKGYLPEPVTVTWNSGTLTNGVRTFPSVRQSSGLYSLSSVVSVTSSSQPVTCNVAHPATNTKVDKTVAPSTCSKPMCPPPELLGGPSVFIFPPKPKDTLMISRTPEVTCVVVDVSQDDPEVQFTWYINNEQVRTARPPLREQQFNSTIRVVSTLPIAHQDWLRGKEFKCKVHNKALPAPIEKTISKARGQPLEPKVYTMGPPREELSSRSVSLTCMINGFYPSDISVEWEKNGKAEDNYKTTPTVLDSDGSYFLYSKLSVPTSEWQRGDVFTCSVMHEALHNHYTQKSISRSPGK
light: QVLTQTPSSTSVAVGGTVTINCQSSPSVYLNLLAWYQQKPGQPPKLLIYSASFLQSGVPPRFSGSGSGTQFTLTISGVQCADAATYYCAGVYSNNIYTFGGGTKVEIKRDPVAPTVLIFPPAADQVATGTVTIVCVANKYFPDVTVTWEVDGTTQTTGIENSKTPQNSADCTYNLSSTLTLTSTQYNSHKEYTCKVTQGTTSVVQSFNRGDC
notes: also called GRA0124ccAE02-rIgG
Kd [6]: 553 nM
koff [6]: 0.0108 s⁻¹
kon [6]: 19500 M⁻¹ s⁻¹
Kd [7]: 16.4 nM
koff [7]: 0.000333 s⁻¹
kon [7]: 20400 M⁻¹ s⁻¹

B8: GRA1013hq-rIgG (antibody)
heavy: EVKLMESGGGLVKPGGSLKLSCAASGFTFSSYAMSWVRQTPEKRLEWVTSISSGGTTYYPDSVKGRFTISRDNARNILFLQMSSLRSEDTAMYYCARGPHWYLDVWGAGTSVTVSSSTKGGQPKAPSVFPLAPCCGDTPSSTVTLGCLVKGYLPEPVTVTWNSGTLTNGVRTFPSVRQSSGLYSLSSVVSVTSSSQPVTCNVAHPATNTKVDKTVAPSTCSKPMCPPPELLGGPSVFIFPPKPKDTLMISRTPEVTCVVVDVSQDDPEVQFTWYINNEQVRTARPPLREQQFNSTIRVVSTLPIAHQDWLRGKEFKCKVHNKALPAPIEKTISKARGQPLEPKVYTMGPPREELSSRSVSLTCMINGFYPSDISVEWEKNGKAEDNYKTTPTVLDSDGSYFLYSKLSVPTSEWQRGDVFTCSVMHEALHNHYTQKSISRSPGK
light: DILMTQTPLSLPVSLGDQASISCRSSQSIVHSNGNTYLEWYLQKPGQSPKLLIYKVSNRFSGVPDRFSGSGSGTDFTLKISRVEAEDLGVYYCFQGSHLPLTFGAGTKLELKRTVAARDPVAPTVLIFPPAADQVATGTVTIVCVANKYFPDVTVTWEVDGTTQTTGIENSKTPQNSADSTYNLSSTLTLTSTQYNSHKEYTCKVTQGTTSVVQSFNRGDC
notes: anti-aggrecan antibody from mouse B cells, rabbit constant regions rbIgG / rbIgK2
Kd [8]: 1540 nM
koff [8]: 0.0406 s⁻¹
kon [8]: 26300 M⁻¹ s⁻¹
Kd [9]: 459 nM
koff [9]: 0.00973 s⁻¹
kon [9]: 21200 M⁻¹ s⁻¹
